Results: US20240401082A1 (Sanofi, published 2024)

How the values were obtained:
[1] = target: T1, human complement factor Bb (human, UniProt P00751 260-764); assay: BLI dual target engagement: one target captured, then protein, then the other target
T1 construct: Bought from Complement Technology; Biotinylated with EZ-Link Sulfo-NHS-LC-LC-Biotin when captured in BLI; also called FBb
Text: (§1) Bio-layer interferometry (BLI) was used to assess the recombinant proteins' target engagement to and binding affinity for complement C1s enzyme (active C1s or “C1s” herein) and factor Bb (Bb) (Complement Technology, Tyler, TX, USA). C1s and Bb were biotinylated with EZ-Link™ Sulfo-NHS-LC-LC-Biotin (Thermo Fisher, Waltham, MA, USA) according to manufacturer instructions. Biotinylated C1s or Bb was loaded on Octet® Streptavidin (SA) Biosensors (Sartorius, Göttingen, Germany), followed by a concentration range of purified proteins. To assess dual target engagement, biotinylated active C1s or Bb was loaded onto sensors, followed by purified proteins (“first association phase”), followed by the non-captured complement target (Bb or active C1s, non-biotinylated; “second association phase”). The assays were performed at 30° C. using PBS with 0.1% Tween 20 as a diluent (FIG. 3).

[2] = target: T2, human complement C1s enzyme (activated C1s) (human, UniProt P09871 16-437; P09871 438-688); assay: as above
T2 construct: Bought from Complement Technology; Disulfide-linked heterodimer; Biotinylated with EZ-Link Sulfo-NHS-LC-LC-Biotin when captured in BLI; also called active C1s; aC1s
T2 sequence 1: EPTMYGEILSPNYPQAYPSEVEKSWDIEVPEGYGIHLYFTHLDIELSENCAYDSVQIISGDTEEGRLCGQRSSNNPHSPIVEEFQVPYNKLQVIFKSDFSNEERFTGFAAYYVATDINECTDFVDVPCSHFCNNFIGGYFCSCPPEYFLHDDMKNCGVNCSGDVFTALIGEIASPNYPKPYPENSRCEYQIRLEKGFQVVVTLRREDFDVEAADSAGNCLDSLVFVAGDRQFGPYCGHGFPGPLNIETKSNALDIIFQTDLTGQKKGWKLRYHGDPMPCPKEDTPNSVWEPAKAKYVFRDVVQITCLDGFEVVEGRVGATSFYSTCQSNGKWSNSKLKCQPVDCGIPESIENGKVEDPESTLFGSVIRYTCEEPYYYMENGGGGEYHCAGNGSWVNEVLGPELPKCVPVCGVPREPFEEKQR
T2 sequence 2: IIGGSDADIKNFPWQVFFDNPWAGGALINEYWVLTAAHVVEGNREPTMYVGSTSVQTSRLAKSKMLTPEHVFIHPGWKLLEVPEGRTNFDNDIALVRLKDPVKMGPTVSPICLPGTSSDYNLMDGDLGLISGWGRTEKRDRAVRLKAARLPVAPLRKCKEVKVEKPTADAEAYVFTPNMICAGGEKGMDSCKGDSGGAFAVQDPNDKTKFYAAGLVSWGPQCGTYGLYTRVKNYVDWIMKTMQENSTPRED
Text: as §1

T1 sequence (P00751 260-764): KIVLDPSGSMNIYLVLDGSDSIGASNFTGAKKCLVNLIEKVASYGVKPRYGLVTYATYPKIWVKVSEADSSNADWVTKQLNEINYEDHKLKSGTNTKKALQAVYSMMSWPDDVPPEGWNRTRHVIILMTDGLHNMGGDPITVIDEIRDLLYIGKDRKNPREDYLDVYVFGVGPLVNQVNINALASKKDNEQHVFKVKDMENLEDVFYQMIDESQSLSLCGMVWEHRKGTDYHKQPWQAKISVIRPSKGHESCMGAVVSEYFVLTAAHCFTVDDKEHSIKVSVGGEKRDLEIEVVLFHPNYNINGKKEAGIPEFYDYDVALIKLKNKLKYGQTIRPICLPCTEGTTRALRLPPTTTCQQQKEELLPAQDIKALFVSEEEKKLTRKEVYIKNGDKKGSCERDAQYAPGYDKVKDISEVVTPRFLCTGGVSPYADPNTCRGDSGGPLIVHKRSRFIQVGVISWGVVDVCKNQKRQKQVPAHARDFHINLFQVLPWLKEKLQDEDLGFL

binding result [1]: binds | binding result [2]: binds
B1: construct #18: αC1s GT2A Fab-(G4S)3-αBb scFab (bispecific antibody)
light: DIVLTQSPDSLAVSLGERATISCKASQSVDYDGDSYMNWYQQKPGQPPKILIYDASNLESGIPARFSGSGSGTDFTLTISSLEPEDFAIYYCQQSNEDPWTFGGGTKVEIKRTVAAPSVFIFPPSDEQLKSGTASVVCLLNNFYPREAKVQWKVDNALQSGNSQESVTEQDSKDSTYSLSSTLTLSKADYEKHKVYACEVTHQGLSSPVTKSFNRGEC
chain: QVQLVQSGAEVKKPGASVKLSCTASGFNIKDDYIHWVKQAPGQGLEWIGRIDPADGHTKYAPKFQVKVTITADTSTSTAYLELSSLRSEDTAVYYCARYGYGREVFDYWGQGTTVTVSSASTKGPSVFPLAPCSRSTSESTAALGCLVKDYFPEPVTVSWNSGALTSGVHTFPAVLQSSGLYSLSSVVTVPSSSLGTKTYTCNVDHKPSNTKVDKRVGGGGSGGGGSGGGGSDIQMTQSPSTLSASVGDRVTITCKASQDVGTAVAWYQQKPGKAPKLLIYWASTRHTGVPDRFSGSGSGTDFTLTISSLQAEDFAVYFCHQHSSNPLTFGQGTKLEIKRTVAAPSVFIFPPSDEQLKSGTASVVCLLNNFYPREAKVQWKVDNALQSGNSQESVTEQDSKDSTYSLSSTLTLSKADYEKHKVYACEVTHQGLSSPVTKSFNRGECGGGGSGGGGSGGGGSGGGGSGGGGSGGGGSGGGGSEVQLVESGGGLVKPGGSLRLSCAASGFTFSNYAMSWVRQAPGKRLEWVATISNRGSYTYYPDSVKGRFTISRDNAKNSLYLQMNSLRAEDTALYYCARERPMDYWGQGTLVTVSSASTKGPSVFPLAPCSRSTSESTAALGCLVKDYFPEPVTVSWNSGALTSGVHTFPAVLQSSGLYSLSSVVTVPSSSLGTKTYTCNVDHKPSNTKVDKRV
